How the values were obtained:
Assay in all cases: cell-based or functional assay
[1] = target: HIV Env of isolate ZM135.10a (HIV)
[2] = target: HIV Env of isolate 286.36 (HIV)
[3] = target: HIV Env of isolate TZA125.17 (HIV)
[4] = target: HIV Env of isolate P0402.c2.11 (HIV)
[5] = target: Env of HIV isolate WITO.33 (clade B) (HIV)
[6] = target: Env of HIV isolate SO18.18 (clade C) (HIV)
[7] = target: Env of HIV isolate CNE7 (clade BC) (HIV)
[8] = target: Env of HIV isolate ZM214.15 (clade C) (HIV)
[9] = target: Env of HIV isolate BS208.B1 (clade A) (HIV)
[10] = target: Env of HIV isolate CE703010217.B6 (clade C) (HIV)
[11] = target: Env of HIV isolate CNE19 (clade BC) (HIV)
[12] = target: Env of HIV isolate 3301.v1.c24 (clade AC) (HIV)
[13] = target: Env of HIV isolate R3265.c6 (clade AE) (HIV)
[14] = target: HIV Env of isolate 26191-2.48 (HIV)
[15] = target: Env of HIV isolate ZM135.10a (clade C) (HIV)
[16] = target: HIV Env of isolate 96ZM651.02 (HIV)
[17] = target: Env of HIV isolate TRJO.58 (clade B) (HIV)
[18] = target: HIV Env of isolate ZM106.9 (HIV)
[19] = target: Env of HIV isolate 16845-2.22 (clade C) (HIV)
[20] = target: Env of HIV isolate 247-23 (clade D) (HIV)
[21] = target: Env of HIV isolate QH209.14M.A2 (clade A) (HIV)
[22] = target: Env of HIV isolate RHPA.7 (clade B) (HIV)
[23] = target: HIV Env of isolate X1193.c1 (HIV)
[24] = target: Env of HIV isolate ZM197.7 (clade C) (HIV)
[25] = target: Env of HIV isolate 0077.v1.c16 (clade C) (HIV)
[26] = target: Env of HIV isolate MB539.2B7 (clade A) (HIV)
[27] = target: Env of HIV isolate CNE57 (clade B) (HIV)
[28] = target: Env of HIV isolate PVO.04 (clade B) (HIV)
[29] = target: Env of HIV isolate REJO.67 (clade B) (HIV)
[30] = target: Env of SIVmac251.30.SG3
[31] = target: HIV Env of isolate CNE7 (HIV)
[32] = target: Env of HIV isolate BR07.DG (clade B) (HIV)
[33] = target: Env of HIV isolate 57128.vrc15 (clade D) (HIV)
[34] = target: Env of HIV isolate MW965.26 (clade C) (HIV)
[35] = target: Env of HIV isolate T251-18 (clade AG) (HIV)
[36] = target: Env of HIV isolate BJOX010000.06.2 (clade AE) (HIV)
[37] = target: Env of HIV isolate TZBD.02 (clade C) (HIV)
[38] = target: HIV Env of isolate 00836-2.5 (HIV)
[39] = target: HIV Env of isolate 25710-2.43 (HIV)
[40] = target: Env of HIV isolate BB201.B42 (clade A) (HIV)
[41] = target: HIV Env of isolate 16845-2.22 (HIV)
[42] = target: Env of HIV isolate P1981.C5.3 (clade G) (HIV)
[43] = target: HIV Env of isolate ZM197.7 (HIV)
[44] = target: Env of HIV isolate CNE20 (clade BC) (HIV)
[45] = target: HIV Env of isolate DU151.02 (HIV)
[46] = target: HIV Env of isolate 3016.v5.c45 (HIV)
[47] = target: HIV Env of isolate CAP244.D3 (HIV)
[48] = target: Env of HIV isolate SS1196.01 (clade B) (HIV)
[49] = target: HIV Env of isolate CH181.12 (HIV)
[50] = target: HIV Env of isolate CNE53 (HIV)

B1: ePGT121.15 (ePGT121.15.H6 VH and ePGT121.15.L1 VL) (antibody, V domains shown)
VH: QMQLQESGPGLVKPGETLSLTCSVSGASISSSYWSWLRETPGKGLEWIGYTHHSGDTNYAPSLKSRVHLGLHPSKNQVSLSLTSVTAADTAVYYCARTLHGRRIYGVVAFNEFFTYFYWEVWGKGTQVTVSS
VL: SDISVAPGETVRISCGGESIGSRAVQWYQHRAGQAPKLIIYNNQDRPPGIPERFSGSPDIDFGTTATLTITNVEAGDEATYYCHIWDSRRPTNWVFGGGTTLTVL
Which IC80, pseudovirus neutralization [1] does the source give for B1 here?
Its IC80, pseudovirus neutralization is 508 ng/mL.

What about the IC80, pseudovirus neutralization [2] of the same binder?
The IC80, pseudovirus neutralization was 6 ng/mL.

What about the IC80, pseudovirus neutralization [3] of the same binder?
The IC80, pseudovirus neutralization was 403 ng/mL.

And the IC80, pseudovirus neutralization [4]?
Its IC80, pseudovirus neutralization is 7 ng/mL.

And the IC50, pseudovirus neutralization [5]?
Its IC50, pseudovirus neutralization is 8 ng/mL.

What about the IC50, pseudovirus neutralization [6] of the same binder?
The IC50, pseudovirus neutralization was 4 ng/mL.

And the IC50, pseudovirus neutralization [7]?
Its IC50, pseudovirus neutralization is 5 ng/mL.

What about the IC50, pseudovirus neutralization [8] of the same binder?
Its IC50, pseudovirus neutralization is 28 ng/mL.

What about the IC50, pseudovirus neutralization [9] of the same binder?
Its IC50, pseudovirus neutralization is greater than 50000 ng/mL.

And the IC50, pseudovirus neutralization [10]?
The IC50, pseudovirus neutralization was 4 ng/mL.

And the IC50, pseudovirus neutralization [11]?
Its IC50, pseudovirus neutralization is 4 ng/mL.

And the IC50, pseudovirus neutralization [12]?
Its IC50, pseudovirus neutralization is 6 ng/mL.

And the IC50, pseudovirus neutralization [13]?
The IC50, pseudovirus neutralization was greater than 50000 ng/mL.

And the IC80, pseudovirus neutralization [14]?
The IC80, pseudovirus neutralization was 15 ng/mL.

What about the IC50, pseudovirus neutralization [15] of the same binder?
Its IC50, pseudovirus neutralization is 119 ng/mL.

And the IC80, pseudovirus neutralization [16]?
Its IC80, pseudovirus neutralization is 4 ng/mL.

What about the IC50, pseudovirus neutralization [17] of the same binder?
The IC50, pseudovirus neutralization was 7 ng/mL.

What about the IC80, pseudovirus neutralization [18] of the same binder?
The IC80, pseudovirus neutralization was 6 ng/mL.

What about the IC50, pseudovirus neutralization [19] of the same binder?
Its IC50, pseudovirus neutralization is 77 ng/mL.

And the IC50, pseudovirus neutralization [20]?
Its IC50, pseudovirus neutralization is greater than 50000 ng/mL.

And the IC50, pseudovirus neutralization [21]?
The IC50, pseudovirus neutralization was greater than 50000 ng/mL.

What about the IC50, pseudovirus neutralization [22] of the same binder?
Its IC50, pseudovirus neutralization is 3 ng/mL.

What about the IC80, pseudovirus neutralization [23] of the same binder?
The IC80, pseudovirus neutralization was 7 ng/mL.

And the IC50, pseudovirus neutralization [24]?
Its IC50, pseudovirus neutralization is greater than 50000 ng/mL.

And the IC50, pseudovirus neutralization [25]?
The IC50, pseudovirus neutralization was greater than 50000 ng/mL.

And the IC50, pseudovirus neutralization [26]?
The IC50, pseudovirus neutralization was greater than 50000 ng/mL.

What about the IC50, pseudovirus neutralization [27] of the same binder?
Its IC50, pseudovirus neutralization is 4 ng/mL.

And the IC50, pseudovirus neutralization [28]?
The IC50, pseudovirus neutralization was 6 ng/mL.

And the IC50, pseudovirus neutralization [29]?
Its IC50, pseudovirus neutralization is 1460 ng/mL.

What about the IC80, pseudovirus neutralization [30] of the same binder?
The IC80, pseudovirus neutralization was greater than 50000 ng/mL.

What about the IC80, pseudovirus neutralization [31] of the same binder?
The IC80, pseudovirus neutralization was 13 ng/mL.

What about the IC50, pseudovirus neutralization [32] of the same binder?
The IC50, pseudovirus neutralization was 9 ng/mL.

What about the IC50, pseudovirus neutralization [33] of the same binder?
The IC50, pseudovirus neutralization was 7 ng/mL.

And the IC50, pseudovirus neutralization [34]?
The IC50, pseudovirus neutralization was 4 ng/mL.

And the IC50, pseudovirus neutralization [35]?
The IC50, pseudovirus neutralization was 56 ng/mL.

And the IC50, pseudovirus neutralization [36]?
Its IC50, pseudovirus neutralization is greater than 50000 ng/mL.

And the IC50, pseudovirus neutralization [37]?
The IC50, pseudovirus neutralization was 3 ng/mL.

What about the IC80, pseudovirus neutralization [38] of the same binder?
Its IC80, pseudovirus neutralization is greater than 50000 ng/mL.

And the IC80, pseudovirus neutralization [39]?
The IC80, pseudovirus neutralization was 21 ng/mL.

What about the IC50, pseudovirus neutralization [40] of the same binder?
Its IC50, pseudovirus neutralization is 3 ng/mL.

What about the IC80, pseudovirus neutralization [41] of the same binder?
The IC80, pseudovirus neutralization was 264 ng/mL.

What about the IC50, pseudovirus neutralization [42] of the same binder?
The IC50, pseudovirus neutralization was 2 ng/mL.

What about the IC80, pseudovirus neutralization [43] of the same binder?
The IC80, pseudovirus neutralization was greater than 50000 ng/mL.

And the IC50, pseudovirus neutralization [44]?
The IC50, pseudovirus neutralization was 3 ng/mL.

And the IC80, pseudovirus neutralization [45]?
Its IC80, pseudovirus neutralization is 4 ng/mL.

What about the IC80, pseudovirus neutralization [46] of the same binder?
Its IC80, pseudovirus neutralization is greater than 50000 ng/mL.

What about the IC80, pseudovirus neutralization [47] of the same binder?
The IC80, pseudovirus neutralization was greater than 50000 ng/mL.

What about the IC50, pseudovirus neutralization [48] of the same binder?
The IC50, pseudovirus neutralization was 3 ng/mL.

And the IC80, pseudovirus neutralization [49]?
The IC80, pseudovirus neutralization was 8 ng/mL.

And the IC80, pseudovirus neutralization [50]?
The IC80, pseudovirus neutralization was 15 ng/mL.

— patent US20210292396A1
